Test results published in PMC5967865 (eLife, 2018).
Residue numbers refer to the chain shown, from its start.

T1: human GlyT1 (Homo sapiens, UniProt P48067)
T1 construct: gene SLC6A9; Sf9 cells; LMNG/CHS; purified with Cmpd1
T1 sequence (P48067 1-706): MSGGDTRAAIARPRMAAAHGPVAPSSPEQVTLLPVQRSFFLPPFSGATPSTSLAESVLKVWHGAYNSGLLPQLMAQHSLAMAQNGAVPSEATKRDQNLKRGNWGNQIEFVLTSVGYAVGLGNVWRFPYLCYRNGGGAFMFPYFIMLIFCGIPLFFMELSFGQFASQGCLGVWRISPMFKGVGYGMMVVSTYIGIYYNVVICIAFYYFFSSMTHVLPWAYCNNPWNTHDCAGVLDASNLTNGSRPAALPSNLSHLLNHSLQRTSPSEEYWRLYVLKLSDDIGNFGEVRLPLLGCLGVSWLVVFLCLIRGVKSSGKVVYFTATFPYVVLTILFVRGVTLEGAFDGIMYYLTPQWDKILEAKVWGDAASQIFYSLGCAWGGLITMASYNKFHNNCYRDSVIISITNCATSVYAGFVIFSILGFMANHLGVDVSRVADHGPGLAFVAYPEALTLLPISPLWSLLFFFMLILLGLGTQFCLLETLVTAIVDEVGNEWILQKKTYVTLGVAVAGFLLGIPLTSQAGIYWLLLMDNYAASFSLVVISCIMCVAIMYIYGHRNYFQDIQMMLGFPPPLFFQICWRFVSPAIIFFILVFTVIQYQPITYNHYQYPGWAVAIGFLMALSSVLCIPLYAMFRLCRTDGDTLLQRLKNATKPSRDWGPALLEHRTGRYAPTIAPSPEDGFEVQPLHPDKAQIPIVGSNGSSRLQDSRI

B1: Sb_ENT1#1 (VHH)
VHH: QVQLVESGGGLVQAGGSLRLSCAASGFPVEYNTMYWYRQAPGKEREWVATIESWGWFTWYADSVKGRFTISRDNAKNTVYLQMNSLKPEDTAVYYCEVGVGHNYAGRGTQVTVS
notes: concave sybody; source: purified (Ni-NTA, SEC); not shown: Myc, C-terminal, kept
B2: Sb_GlyT1#4 (VHH)
VHH: QVQLVESGGGLVQAGGSLRLSCAASGFPVYAYVMAWYRQAPGKEREWVAAIKSQGVSTYYADSVKGRFTISRDNAKNTVYLQMNSLKPEDTAVYYCYVYVGTSYTGQGTQVTVS
B3: Sb_GlyT1#5 (VHH)
VHH: QVQLVESGGGLVQAGGSLRLSCAASGFPVMNRWMAWYRQAPGKEREWVAAVASYGETTRYADSVKGRFTISRDNAKNTVYLQMNSLKPEDTAVYYCNVKDWGWWTRAYDYWGQGTQVTVS
B4: Sb_GlyT1#6 (VHH)
VHH: QVQLVESGGGLVQAGGSLRLSCAASGFPVVYYEMYWYRQAPGKEREWVAAITSSGWYTHYADSVKGRFTISRDNAKNTVYLQMNSLKPEDTAVYYCNVKDWGASWKQYDYWGQGTQVTVS
B5: Sb_GlyT1#7 (VHH)
VHH: B4 VHH with V30Y, Y31A, T52S, W56T, Y57W, T58A, H59G, K106A, Q107Y
B6: Sb_GlyT1#1 (VHH)
VHH: QVQLVESGGGLVQAGGSLRLSCAASGFPVYYSHMLWYRQAPGKEREWVAAIKSLGAKTWYADSVKGRFTISRDNAKNTVYLQMNSLKPEDTAVYYCTVGVGTNYYGQGTQVTVS
B7: Sb_GlyT1#2 (VHH)
VHH: B6 VHH with Y31H, S32R, H33S, L54N, K57G, Y105W
B8: Sb_GlyT1#3 (VHH)
VHH: QVQLVESGGGLVQAGGSLRLSCAASGFPVWNNGMAWYRQAPGKEREWVAAIASRGRSTVYADSVKGRFTISRDNAKNTVYLQMNSLKPEDTAVYYCYVNVGSHYEGQGTQVTVS

The molecules below were run against T2, Human ENT1(2–456) (Homo sapiens, UniProt Q99808, biotin on the Avi-tag (in vivo, co-transfected E. coli BirA); glycosylation reduced with PNGaseF and Endo-alpha-N-acetylgalactosaminidase) (assay: SPR; Biacore T200, 18°C; biotinylated ENT1 (about 1000 RU) on SA sensor, sybody up to 475 nM as analyte; 20 mM HEPES pH 7.5, 150 mM NaCl, 0.001% LMNG, 1.25 µM DOPS; 50 µl/min; 1:1 model). Conditions: both partners purified.
T2 construct: human equilibrative nucleoside transporter 1 (ENT1, SLC29A1), residues 2-456, called wild-type, full length protein; also called equilibrative nucleoside transporter 1; SLC29A1; source: HEK293 freestyle cells, transient transfection, purified (TALON, SEC) in LMNG with NBTI; not shown: His10, N-terminal, cleaved; GFP (enhanced), N-terminal, cleaved; Avi, N-terminal, kept
T2 sequence (Q99808 2-456): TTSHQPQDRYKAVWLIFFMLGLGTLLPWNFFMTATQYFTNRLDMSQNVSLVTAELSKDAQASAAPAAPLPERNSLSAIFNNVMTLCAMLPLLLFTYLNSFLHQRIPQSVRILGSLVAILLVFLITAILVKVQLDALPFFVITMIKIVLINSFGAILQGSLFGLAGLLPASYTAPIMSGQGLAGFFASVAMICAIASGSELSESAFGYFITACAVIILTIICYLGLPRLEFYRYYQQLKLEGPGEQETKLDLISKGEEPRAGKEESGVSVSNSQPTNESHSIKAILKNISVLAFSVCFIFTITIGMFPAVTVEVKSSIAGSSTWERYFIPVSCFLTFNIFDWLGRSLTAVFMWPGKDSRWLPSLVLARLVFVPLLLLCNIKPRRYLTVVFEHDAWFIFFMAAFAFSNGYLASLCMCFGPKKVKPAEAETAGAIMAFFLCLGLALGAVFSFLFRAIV

Which results are given for B1?
Kd: 40 nM; koff: 0.00744 s⁻¹; kon: 186000 M⁻¹ s⁻¹

What follows are molecules tested against Human GlyT1 (human) (UniProt P48067) (assay: not given). Conditions: not given.

What does the source list for B2?
SPA signal (fold increase) of [3H]-Org24598 binding at 19°C: 1.5 fold; ΔTm(SPA-TS): shift of the melting temperature of GlyT1, read by binding of [3H]-Org24598: 2.1 °C

Which SPA signal (fold increase) of [3H]-Org24598 binding at 19°C does the source give for B3 here?
Its SPA signal (fold increase) of [3H]-Org24598 binding at 19°C is 1.5 fold.

And the ΔTm(SPA-TS): shift of the melting temperature of GlyT1, read by binding of [3H]-Org24598?
The ΔTm(SPA-TS): shift of the melting temperature of GlyT1, read by binding of [3H]-Org24598 was 2.6 °C.

For B4, which SPA signal (fold increase) of [3H]-Org24598 binding at 19°C is on record?
Its SPA signal (fold increase) of [3H]-Org24598 binding at 19°C is 1.6 fold.

What about the ΔTm(SPA-TS): shift of the melting temperature of GlyT1, read by binding of [3H]-Org24598 of the same molecule?
Its ΔTm(SPA-TS): shift of the melting temperature of GlyT1, read by binding of [3H]-Org24598 is 8.8 °C.

Which results are given for B5?
SPA signal (fold increase) of [3H]-Org24598 binding at 19°C: 1.8 fold; ΔTm(SPA-TS): shift of the melting temperature of GlyT1, read by binding of [3H]-Org24598: 10 °C

How did the SPA signal (fold increase) of [3H]-Org24598 binding at 19°C turn out when B6 was run?
The SPA signal (fold increase) of [3H]-Org24598 binding at 19°C was 1.2 fold.

And the ΔTm(SPA-TS): shift of the melting temperature of GlyT1, read by binding of [3H]-Org24598?
Its ΔTm(SPA-TS): shift of the melting temperature of GlyT1, read by binding of [3H]-Org24598 is 0.9 °C.

B7 was tested. Which SPA signal (fold increase) of [3H]-Org24598 binding at 19°C did it give?
The SPA signal (fold increase) of [3H]-Org24598 binding at 19°C was 1.1 fold.

And the ΔTm(SPA-TS): shift of the melting temperature of GlyT1, read by binding of [3H]-Org24598?
Its ΔTm(SPA-TS): shift of the melting temperature of GlyT1, read by binding of [3H]-Org24598 is 1.5 °C.

Which results are given for B8?
SPA signal (fold increase) of [3H]-Org24598 binding at 19°C: 1.1 fold; ΔTm(SPA-TS): shift of the melting temperature of GlyT1, read by binding of [3H]-Org24598: 1.7 °C

What follows are molecules tested against T2, Human ENT1(2–456) (assay: cell-based or functional assay). Conditions: not given.

How did the “SPA signal (fold increase) of [3H]-NBTI binding at 30.1°C” value turn out when B1 was run?
Its value is 7 fold.

What about the “ΔTm(SPA-TS): shift of the apparent melting temperature of ENT1, read by binding of [3H]-NBTI” value of the same molecule?
The value was 6.1 °C.

These molecules were tested against GFP [GFP: P42212] (assay: pull-down; nanobody or sybody displayed on ribosomes (PUREfrexSS; 10^6 mRNA of 3K1K spiked into 10^12 mRNA of the non-randomized convex sybody), pulled down with biotinylated GFP or MBP immobilized on magnetic beads; retrieved mRNA reverse transcribed and quantified by qPCR against the input mRNA). Conditions: not given.

3K1K nanobody (VHH) was tested. Which mRNA recovery (percent of input mRNA) did it give?
Its mRNA recovery (percent of input mRNA) is 84.6%.

The molecules below were run against Human GlyT1 (human) (UniProt P48067) (assay: SPR; Biacore T200, 18°C; biotinylated GlyT1 (about 300 RU) on SA sensor, sybody up to 2 µM as analyte; 20 mM Citrate pH 6.4, 150 mM NaCl, 0.004% LMNG; 50 µl/min; 1:1 model; single cycle for Sb_GlyT1#6; KD from kinetics or from equilibrium as the column says). Conditions: not given.

Which Kd does the source give for B2 here?
Its Kd is 476 nM.

For B3, which Kd is on record?
Its Kd is 81.9 nM.

What about the koff of the same molecule?
Its koff is 0.0372 s⁻¹.

And the kon?
The kon was 454000 M⁻¹ s⁻¹.

For B4, which Kd is on record?
The Kd was 0.494 nM.

What about the koff of the same molecule?
The koff was 4.99e-05 s⁻¹.

And the kon?
The kon was 100000 M⁻¹ s⁻¹.

B5 was tested. Which Kd did it give?
The Kd was 9.18 nM.

What about the koff of the same molecule?
The koff was 0.000185 s⁻¹.

And the kon?
The kon was 20100 M⁻¹ s⁻¹.

For B6, which Kd is on record?
The Kd was 307 nM.

What about the koff of the same molecule?
Its koff is 0.0577 s⁻¹.

And the kon?
The kon was 188000 M⁻¹ s⁻¹.

B7 was tested. Which Kd did it give?
Its Kd is 2520 nM.

What about the koff of the same molecule?
The koff was 0.0928 s⁻¹.

What about the kon of the same molecule?
The kon was 36800 M⁻¹ s⁻¹.

Which Kd does the source give for B8 here?
Its Kd is 154 nM.

Each molecule was assayed against T1, human GlyT1 (assay: not given). Conditions: 6 nM [3H]-Org24598, labelled compound, 4°C, LMNG; citrate pH 6.4 (buffer assignment by 'respectively'); with and without sybodies.
Type: binding

With `CN(CC[C@@H](Oc1ccc(C(F)(F)F)cc1)c1ccccc1)CC(=O)O` [Org24598] as the molecule, how does the “scintillation proximity assay (SPA-TS) with [3H]-Org24598” value read?
The value was “SPA-TS analysis using the commercially available tritiated inhibitor Org24598”.
